Measurements taken from PMC7175333.

Tests used:
[1] = molecular target: DLnano_LS_GT8 (DNA‐launched lumazine synthase nanoparticle decorated with eOD‐GT8, produced in vivo) (Aquifex aeolicus); assay: native gel or EMSA; pseudo-native PAGE (3-8% Tris-acetate gel, LDS buffer at room temperature, no boiling) of mouse muscle homogenates 4 d.p.i., blotted with VRC01; SEC-purified recombinant standards alongside
[2] = molecular target: LS_HA_NC99 (lumazine synthase nanoparticle displaying the receptor binding domain of the head of influenza hemagglutinin, H1N1 A/New Caledonia/20/1999) (Aquifex aeolicus | influenza A virus H1N1 A/New Caledonia/20/1999); assay: SEC + SEC-MALS + other: negative stain electron microscopy

Row | Substance | stoichiometry N [1] | stoichiometry N [2]
1 | DLnano_LS_GT8 (DNA‐launched lumazine synthase nanoparticle decorated with eOD‐GT8, produced in vivo) | 60 | –
2 | LS_HA_NC99 (lumazine synthase nanoparticle displaying the receptor binding domain of the head of influenza hemagglutinin, H1N1 A/New Caledonia/20/1999) | – | 60
